Test results published in patent US7998940B2, “Aptamers to von Willebrand factor and their use as thrombotic disease therapeutics” (Archemix Corp., priority 2004, dated 2011).
Where a chain is given by its changes, count along the chain named. Read-outs that look alike come from different tables or passages of the source. Oligonucleotides are written 5' to 3', each unit as a sugar letter and its base; * is a phosphorothioate linkage, no mark a phosphodiester; rarer units and linkages stand in square brackets, end groups in braces. Plain capitals give the bases only. [invdT] = inverted (3'-3') thymidine; d = 2'-deoxy (DNA); m = 2'-O-methyl; r = 2'-OH (RNA); f = 2'-fluoro

Key:
[1] = test system: botrocetin induced platelet aggregation; assay: Inhibition of botrocetin induced platelet aggregation (BIPA) in human PRP; assay type: cell-based; settings: for IC90: human platelet rich plasma; for ≦200 nM aptamer gives >90% blocking in BIPA at 6 minutes: botrocetin induced platelet aggregation
Outline: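 Fresh human platelet-rich plasma, prewarmed at 37 degrees C, was preincubated one minute with aptamer (zero, 1 nM to 1000 nM) before botrocetin at a per-donor titrated aggregating concentration. Aggregation was followed as light transmittance; the value is the concentration blocking aggregation by 90% or greater after 6 minutes.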

[2] = test system: full length human vWF (SEQ ID NO 7); assay: dot blot KD determination and extent of binding, full length human vWF; settings: for % binding @ 100 nM vWF: extent of aptamer binding at 100 nM full length human vWF; for binding to human vWF: in words;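 on all read-outs here: dot blot binding of aptamers to full length human vWF across a protein titration, incubated 30 minutes at room temperature in 1x DPBS with BSA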
Procedure: Based on this initial screen, KDs were determined for 3 of the vWF dependent binding sequences using the dot blot assay. […] A 12 point protein titration was used in the dot blot assay (300 nM, 100 nM, 30 nM, 10 nM, 3 nM, 1 nM, 300 pM, 100 pM, 30 pM, 10 pM, 3 pM, 0 pM) in 1×DPBS plus 0.1 mg/mL BSA at room temperature for 30 minutes.
An 8 point protein titration was used in the dot blot binding assay (100n M, 30 nM, 10 nM, 3 nM, 1 nM, 300 pM, 100 pM, 0 pM)) in 1× Dulbecco's PBS containing 0.1 BSA (final volume of 50 uL) for 30 minutes at room temperature.

[3] = test system: rabbit vWF A1 domain (SEQ ID NO 6); assay: 3-point dot blot screen, rabbit vWF A1 domain; assay type: binding; settings: for Screen- Rabbit/No Protein: 100 nM rabbit vWF A1 domain, ratio of fraction bound with target to without; for Screen Rabbit/No Protein: 3-point dot blot screen, 20 nM rabbit vWF A1 domain, ratio of fraction of aptamer bound with target protein to fraction bound without protein
Chain of rabbit vWF A1 domain (SEQ ID NO 6) (as listed by the source): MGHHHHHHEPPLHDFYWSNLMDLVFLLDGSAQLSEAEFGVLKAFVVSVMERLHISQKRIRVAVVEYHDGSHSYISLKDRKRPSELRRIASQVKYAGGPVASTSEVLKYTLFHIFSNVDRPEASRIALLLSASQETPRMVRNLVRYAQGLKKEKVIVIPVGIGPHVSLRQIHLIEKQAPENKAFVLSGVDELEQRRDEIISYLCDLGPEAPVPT
Outline: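 Rabbit vWF A1 domain binding was screened by dot blot using three conditions: no target protein, human vWF, and rabbit vWF A1 domain at 100 nM (20 nM in the screen run twice). Radiolabeled aptamer bound to nitrocellulose was quantified, and results are expressed as the ratio of bound fraction with protein to bound fraction without protein.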

[4] = biological target: T1, human vWF A1 domain (SEQ ID NO 5) (Homo sapiens, UniProt P04275, T1381A); assay: 3-point dot blot screen, human vWF A1 domain; assay type: binding; settings: 100 nM human vWF A1 domain
T1 sequence (P04275 with tags, fused parts or gaps T1381A): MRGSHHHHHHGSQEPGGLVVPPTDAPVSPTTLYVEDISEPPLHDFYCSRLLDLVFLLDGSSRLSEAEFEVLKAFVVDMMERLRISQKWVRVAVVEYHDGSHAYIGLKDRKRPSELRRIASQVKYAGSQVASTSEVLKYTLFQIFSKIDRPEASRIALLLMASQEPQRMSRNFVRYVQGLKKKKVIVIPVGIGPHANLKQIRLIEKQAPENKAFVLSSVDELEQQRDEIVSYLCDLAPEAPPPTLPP
Outline: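 Values are ratios of aptamer fraction retained on nitrocellulose with 100 nM vWF A1 domain (human or rabbit) versus a no-protein control. Unique clones from rounds 9 and 12 pools were transcribed, desalted and 5'-32P labeled before this three-point dot blot screen.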

[5] = biological target: T1, human vWF A1 domain (SEQ ID NO 5); assay: dot blot KD determination, human vWF A1 domain
[6] = Phase 3 modification, full length human vWF, dot blot, 8 point protein titration, read-out: KD
[7] = Phase 4 and 5 modification, full length human vWF, read-out: KD
[8] = rRdY aptamers, ratio of fraction bound with target to without
[9] = read-out: Human A1 KD, rRdY aptamers, 6 point protein titration

## PEG20K-NH2-mGmCmGmUdGdCdAmGmUmGmCmCmUmUmCmGmGmCdCmG-s-TmGdCdGdGTmGmCdCmUdCdCmGmUdCmAmCmGmC-3T [ARC1779]
[1]
  IC90: ~100 nM

## dGdGdCdGTdGdCdAdGTdGdCdCTTdCdGdGdCdCdGTdGdCdGdGTdGdCdCTdCdCdGTdCdAdCdGdCdC-3T (DNA GGCGTGCAGTGCCTTCGGCCGTGCGGTGCCTCCGTCACGCC; DNA, [invdT] at 3' end, backbone and methylation of C not given here) [ARC1172, ARC1115 with 3'-inverted dT]
[1]
  IC90: ~200 nM
[2]; Phase 1 modification
  % binding @ 100 nM vWF: 37%
[2]; Phase 1 modification, full length human vWF, dot blot, 8 point protein titration, read-out: KD
  Kd: 2 nM
[2]; Phase 3 modification
  % binding @ 100 nM vWF: 37%
[2]; [6]
  Kd: 2 nM
[2]; Phase 4 and 5 modification
  % binding @ 100 nM vWF: 37%
[2]; [7]
  Kd: 2 nM
[2]; dot blot
  binding to human vWF: shown to bind

## mGmCmGmUdGdCdAmGmUmGmCmCmUmUmCmGmGmCdCmG-s-TmGdCdGdGTmGmCdCmUdCdCmGmUdCmAmCmGmC-3T (GCGUGCAGUGCCUUCGGCCGTGCGGTGCCUCCGUCACGC; sugars from the 5' end mmmmdddmmmmmmmmmmmdmdmddddmmdmddmmdmmmm, [invdT] at 3' end, backbone not given here) [ARC1368]
[1]
  IC90: ~200 nM
[1]; in words, human PRP
  inhibition of botrocetin induced platelet aggregation: potency comparable to ReoPrO™
[2]; Phase 3 modification
  % binding @ 100 nM vWF: 38.2%
[2]; [6]
  Kd: 1.8 nM
[2]; Phase 4 and 5 modification
  % binding @ 100 nM vWF: 38.2%
[2]; [7]
  Kd: 1.8 nM
[2]; dot blot
  binding to human vWF: affinity identical (within experimental error) to that of the parent compound

B1: AMX203.G9: rRdY aptamer clone (nucleic acid)
chain: rGrGrArGdCrGdCrAdCdTdCrArGdCdCrAdCrGrGrGrGdTrGrGrGdTrArGrAdCrGrGdCrGrGrGdTrAdTrGdTrGrGdCdTrGrGdTrGdTdCrGrArArGrGrGdTdTdTdCrGrAdCdCdTdCdTdCdTrGdCdTrArGdC
[3]; rRdY aptamers
  Screen- Rabbit/No Protein: 1.35
[1]
  ≦200 nM aptamer gives >90% blocking in BIPA at 6 minutes: yes
[4]; [8]
  Screen- Human/No Protein: 1.65
[5]; [9]
  Kd: 1.3 nM

B2: AMX237.A2: DNA SELEX 2 aptamer clone (nucleic acid)
chain: CTACCTACGATCTGACTAGCTCCAGTGTTTCATCCAATAACCGTGCGGTGCCTCCGTGAGCTTACTCTCATGTAGTTCC
modifications: DNA, backbone and methylation of C not given here
notes: DNA SELEX 2 aptamer clone
[3]
  Screen Rabbit/No Protein: 2.34

B3: AMX237.A11: DNA SELEX 2 aptamer clone (nucleic acid)
chain: B2 chain with C31T
modifications: DNA, backbone and methylation of C not given here
notes: DNA SELEX 2 aptamer clone
[3]
  Screen Rabbit/No Protein: 2.38

B4: AMX237.B11: DNA SELEX 2 aptamer clone (nucleic acid)
DNA: B2 chain with C31T, C35T
modifications: DNA, backbone and methylation of C not given here
notes: DNA SELEX 2 aptamer clone
[3]
  Screen Rabbit/No Protein: 2.57

B5: AMX238.G5: DNA SELEX 2 aptamer clone (nucleic acid)
DNA: B2 chain with C31T, C34T
modifications: DNA, backbone and methylation of C not given here
notes: DNA SELEX 2 aptamer clone
[3]
  Screen Rabbit/No Protein: 2.68

B6: AMX238.D12: DNA SELEX 2 aptamer clone (nucleic acid)
DNA: B2 chain with C34T
modifications: DNA, backbone and methylation of C not given here
notes: DNA SELEX 2 aptamer clone
[3]
  Screen Rabbit/No Protein: 2.19

B7: AMX205.H10: rRdY aptamer clone (nucleic acid)
chain: rGrGrArGdCrGdCrAdCdTdCrArGdCdCrAdCdTrGdTdTrGdCdCrGrAdCrGrGdTrGrAdTrGdTrAdTdTrArAdCrGdCrGrGrGdCrArAdCrGdTdTrGrGdTrGdTdTdTdCrGrAdCdCdTdCdTdCdTrGdCdTrArGdC
[3]; rRdY aptamers
  Screen- Rabbit/No Protein: 2.47
[4]; [8]
  Screen- Human/No Protein: 1.88
[5]; [9]
  Kd: 397 nM

B8: AMX206.D8: rRdY aptamer clone (nucleic acid)
chain: rGrGrArGdCrGdCrAdCdTdCrArGdCdCrAdCrGrAdCrGrGdTrGrAdTrGrGrAdTdTrArGdCrGdCrGrGdTrGrGrAdTdCdTdTrArAdCrGdTrGdCrGrArGdTdTdTdCrGrAdCdCdTdCdTdCdTrGdCdTrArGdC
[3]; rRdY aptamers
  Screen- Rabbit/No Protein: 3.76
[4]; [8]
  Screen- Human/No Protein: 2.80
[5]; [9]
  Kd: 370 nM

B9: AMX205.F7: rRdY aptamer clone (nucleic acid)
chain: rGrGrArGdCrGdCrAdCdTdCrArGdCdCrAdCrAdCrGrAdCrAdTdTrGrGdCrGrGrGdTdTrGdTrArAdTdTrAdCdCrAdCrGdCrAdTrGrGdCdTrGdTdTdTrGdTdTdTdCrGrAdCdCdTdCdTdCdTrGdCdTrArGdC
[3]; rRdY aptamers
  Screen- Rabbit/No Protein: 2.37
[1]
  ≦200 nM aptamer gives >90% blocking in BIPA at 6 minutes: yes
[4]; [8]
  Screen- Human/No Protein: 3.13
[5]; [9]
  Kd: 1.5 nM

B10: AMX237.G6: DNA SELEX 2 aptamer clone (nucleic acid)
DNA: CTACCTACGATCTGACTAGCGTGCAGTGCCTATTCCAGGCCGTGCGGTGCCTCCGTCACGCTTACTCTCATGTAGTTCC
modifications: DNA, backbone and methylation of C not given here
notes: DNA SELEX 2 aptamer clone
[3]
  Screen Rabbit/No Protein: 3.63
[1]
  ≦200 nM aptamer gives >90% blocking in BIPA at 6 minutes: yes
[2]; dot blot, 12 point protein titration, 1xDPBS plus 0.1 mg/mL BSA, room temperature, 30 minutes, read-out: full length human vWF KD
  Kd: 0.2 nM

B11: AMX201.C8: rRfY aptamer clone (nucleic acid)
chain: rGrGrArGfCrGfCrAfCfUfCrArGfCfCrAfCfCfCfUfCrGfCrArArGfCrAfUfUfUfUrArArGrArAfUrGrAfCfUfUrGfUrGfCfCrGfCfUrGrGfCfUrGfUfUfUfUfCrGrAfCfCfUfCfUfCfUrGfCfUrArGfC
[3]; rRfY aptamers
  Screen- Rabbit/No Protein: 1.50
[1]
  ≦200 nM aptamer gives >90% blocking in BIPA at 6 minutes: yes
[4]; rRfY aptamers, ratio of fraction bound with target to fraction bound without target
  Screen- Human/No Protein: 2.47
[5]; read-out: human A1 KD, rRfY aptamers, 8 point titration of human vWF A1 domain
  Kd: 0.2 nM
